Assay [1] deals with T1, DL3W33, Recombinant Human DLL1 ECD (Ser22-Gly540), -DI-C-6xHis (human, UniProt O00548 22-540).
T1 construct: also called huDLL1; TPP000049465
T1 sequence: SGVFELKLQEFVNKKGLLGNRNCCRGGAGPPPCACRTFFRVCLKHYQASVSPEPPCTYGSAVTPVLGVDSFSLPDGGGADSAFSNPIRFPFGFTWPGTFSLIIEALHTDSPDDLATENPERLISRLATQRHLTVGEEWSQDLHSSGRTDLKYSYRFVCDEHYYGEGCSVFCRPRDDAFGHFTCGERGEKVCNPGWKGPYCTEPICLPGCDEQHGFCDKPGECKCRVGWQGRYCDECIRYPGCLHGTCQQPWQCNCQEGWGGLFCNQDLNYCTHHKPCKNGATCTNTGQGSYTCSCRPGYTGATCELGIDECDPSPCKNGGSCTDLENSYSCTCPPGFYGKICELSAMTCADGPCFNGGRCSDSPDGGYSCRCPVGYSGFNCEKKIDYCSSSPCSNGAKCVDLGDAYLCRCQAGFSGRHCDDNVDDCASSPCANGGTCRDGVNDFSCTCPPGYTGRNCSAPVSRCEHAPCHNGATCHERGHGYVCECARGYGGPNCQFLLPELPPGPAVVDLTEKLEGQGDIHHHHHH
In words: SPR (ProteOn), antibody captured by anti-Fc; DLL1 at 100 nM and 1000 nM.

For assay [2], the target named is T2, DL3W34, human DLL4 ECD (Ser27-Pro524), C-10xHis (human, UniProt Q9NR61 27-524).
T2 construct: also called huDLL4; TPP0000494661
T2 sequence (Q9NR61 other isoform, or with tags, fused parts or gaps limits assumed): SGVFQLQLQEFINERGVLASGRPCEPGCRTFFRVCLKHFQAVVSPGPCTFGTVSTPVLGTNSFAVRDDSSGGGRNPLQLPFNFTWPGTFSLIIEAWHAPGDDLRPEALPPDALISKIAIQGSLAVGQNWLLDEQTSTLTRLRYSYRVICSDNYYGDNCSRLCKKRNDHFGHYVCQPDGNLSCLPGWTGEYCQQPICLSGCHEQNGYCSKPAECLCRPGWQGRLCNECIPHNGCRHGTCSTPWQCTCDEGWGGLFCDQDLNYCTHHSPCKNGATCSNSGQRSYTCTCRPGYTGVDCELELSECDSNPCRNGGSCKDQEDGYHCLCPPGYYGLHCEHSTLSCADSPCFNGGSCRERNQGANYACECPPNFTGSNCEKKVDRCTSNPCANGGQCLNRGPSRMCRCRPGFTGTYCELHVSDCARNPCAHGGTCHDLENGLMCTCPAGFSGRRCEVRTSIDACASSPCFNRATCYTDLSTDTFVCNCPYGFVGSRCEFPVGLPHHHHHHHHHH
In words: SPR (ProteOn), antibody captured by anti-Fc; DLL4 at 100 nM and 1000 nM.

The target in assay [3] is T3, DL3W35, extracellular domain of human DLL3 linked to a C-terminal 6xHis-Tag and a linker (human, UniProt Q9NYJ7 27-479).
T3 construct: also called human DLL3 ECD; huDLL3
T3 sequence: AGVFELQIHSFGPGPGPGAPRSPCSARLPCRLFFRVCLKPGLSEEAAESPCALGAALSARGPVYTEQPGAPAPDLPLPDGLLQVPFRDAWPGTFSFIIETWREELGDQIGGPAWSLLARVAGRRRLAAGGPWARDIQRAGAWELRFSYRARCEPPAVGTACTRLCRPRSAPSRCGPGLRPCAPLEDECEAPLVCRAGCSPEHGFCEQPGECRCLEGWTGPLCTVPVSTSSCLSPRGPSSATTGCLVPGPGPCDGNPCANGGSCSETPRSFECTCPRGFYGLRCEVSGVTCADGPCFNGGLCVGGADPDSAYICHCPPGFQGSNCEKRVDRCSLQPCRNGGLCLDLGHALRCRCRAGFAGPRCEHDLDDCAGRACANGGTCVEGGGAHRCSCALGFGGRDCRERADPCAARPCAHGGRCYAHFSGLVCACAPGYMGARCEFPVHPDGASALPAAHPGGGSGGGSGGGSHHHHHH
In words: SPR (ProteOn), antibody captured by anti-Fc, DLL3 (DL3W35) titrated.

For assay [4], the target named is T4, DL3W37, human DLL3 EGF6 domain, HSA Fusion and C-term 6His tag (human).
T4 construct: Fusion with the C34S variant of human serum albumin at the C-terminus of the DLL3 subdomain, plus 6xHis
T4 sequence (chain, as listed by the source limits assumed): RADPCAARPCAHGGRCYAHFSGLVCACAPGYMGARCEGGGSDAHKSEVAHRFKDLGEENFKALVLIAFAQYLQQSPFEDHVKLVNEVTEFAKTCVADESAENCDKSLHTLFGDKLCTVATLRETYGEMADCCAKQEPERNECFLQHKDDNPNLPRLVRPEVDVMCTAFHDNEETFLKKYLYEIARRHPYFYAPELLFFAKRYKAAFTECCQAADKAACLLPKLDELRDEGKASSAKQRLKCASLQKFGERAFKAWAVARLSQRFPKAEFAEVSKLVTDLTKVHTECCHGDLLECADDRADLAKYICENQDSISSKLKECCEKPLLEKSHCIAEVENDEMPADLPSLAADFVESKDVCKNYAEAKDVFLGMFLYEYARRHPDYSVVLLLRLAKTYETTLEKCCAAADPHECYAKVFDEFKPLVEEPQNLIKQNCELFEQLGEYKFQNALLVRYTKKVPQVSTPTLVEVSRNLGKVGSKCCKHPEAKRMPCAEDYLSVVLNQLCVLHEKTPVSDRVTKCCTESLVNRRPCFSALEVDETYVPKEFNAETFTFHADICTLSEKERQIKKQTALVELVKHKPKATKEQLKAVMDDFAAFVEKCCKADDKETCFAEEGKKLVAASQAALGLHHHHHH
In words: MSD plate binding assay on coated DLL3 domain-HSA fusions.

The target of assay [5] is T5, human DLL3 on DLL3+ tumor cells (human, UniProt Q9NYJ7 27-618).
T5 sequence: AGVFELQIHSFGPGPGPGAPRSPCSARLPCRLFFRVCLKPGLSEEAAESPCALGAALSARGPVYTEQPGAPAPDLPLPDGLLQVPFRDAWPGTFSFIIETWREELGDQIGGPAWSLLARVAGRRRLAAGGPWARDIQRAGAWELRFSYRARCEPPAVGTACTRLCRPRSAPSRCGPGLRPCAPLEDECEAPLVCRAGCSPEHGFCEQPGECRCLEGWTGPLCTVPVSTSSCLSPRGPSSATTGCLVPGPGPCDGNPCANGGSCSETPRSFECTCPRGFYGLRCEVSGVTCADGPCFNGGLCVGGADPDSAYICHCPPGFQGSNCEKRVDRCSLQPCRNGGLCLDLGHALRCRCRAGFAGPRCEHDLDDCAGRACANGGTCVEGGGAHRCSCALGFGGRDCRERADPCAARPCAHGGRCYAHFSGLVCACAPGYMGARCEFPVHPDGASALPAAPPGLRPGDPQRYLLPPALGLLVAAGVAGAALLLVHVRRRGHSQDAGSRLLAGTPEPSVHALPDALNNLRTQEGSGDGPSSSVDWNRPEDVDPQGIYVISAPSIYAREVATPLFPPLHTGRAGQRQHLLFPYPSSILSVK
In words: cell-based or functional assay.

For assay [6], the target named is T6, recombinant human DLL3 (Example 9, construct not named) (human, UniProt Q9NYJ7 27-492, limits assumed).
T6 construct: also called DLL3 antigen
T6 sequence: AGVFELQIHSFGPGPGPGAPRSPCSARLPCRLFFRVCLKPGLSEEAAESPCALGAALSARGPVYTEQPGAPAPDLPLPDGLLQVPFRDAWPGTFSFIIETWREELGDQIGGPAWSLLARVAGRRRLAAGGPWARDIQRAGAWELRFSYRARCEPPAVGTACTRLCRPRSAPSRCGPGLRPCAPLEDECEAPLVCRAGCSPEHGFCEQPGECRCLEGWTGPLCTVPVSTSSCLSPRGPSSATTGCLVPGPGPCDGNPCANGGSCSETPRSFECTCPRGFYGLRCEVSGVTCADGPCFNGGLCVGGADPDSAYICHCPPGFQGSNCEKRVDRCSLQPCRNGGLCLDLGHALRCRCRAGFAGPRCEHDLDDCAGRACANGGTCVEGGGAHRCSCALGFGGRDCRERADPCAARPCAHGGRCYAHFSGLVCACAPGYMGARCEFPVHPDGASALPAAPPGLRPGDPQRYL
In words: SPR (Biacore T200), antibody captured by goat anti-Fc on a C1 chip, DLL3 titrated.

This is an account of results in patent US20240025992A1 (Janssen / Centocor, published 2024).

B1: DL3B572 (Fc fusion)
scFv: EVQLVQSGAEVKKPGASVKVSCKASGYTFTTYYIHWVRQAPGQGLEWMGIIDPSGGRTSYAQKFLGRVTMTRDTSTSTVYMELRSLRSEDTAVYYCARGGDGTWYYGMDVWGQGTTVTVSSGGSEGKSSGSGSESKSTGGSDIVMTQSPSFLSASVGDRVTITCRASQGISNYLAWYQQKPGKAPKLLIYAASTLQSGVPSRFSGSGSGTEFTLTISSLQPEDFATYYCQQLNSYPLTFGGGTKVEIK
notes: also called DL3B409 scFv-Fc; not shown: wild-type IgG1 Fc domain
As for B1, the binding result in assay [1] and in assay [2] was “no binding (tested: 1000 nM)” in each case. Further, the Kd (in general, the equilibrium constant for the complex coming apart) in assay [3] turned out to be 2.32 nM.

B2: DL3B569 (Fc fusion)
scFv: DIQMTQSPSSLSASVGDRVTITCRASQGISNYLAWFQQKPGKAPKSLIYAASSLQSGVPSKFSGSGSGTDFTLTISSLQPEDFATYYCQQYNSYPYTFAQGTKLEIKGGSEGKSSGSGSESKSTGGSQVQLVQSGAEVKKPGASVKVSCKASGNTFTNYYIHWVRQAPGQGLEWMGIINPSGGSTSYAQKLQGRMTMTRDTSTSTVYMELSSLRSEDTAVYFCARQGPFIGDAFDIWGQGTMVTVSS
notes: The conflict is not resolved; also called DL3B279 scFv-Fc; not shown: wild-type IgG1 Fc domain
In the case of B2, the binding result in assay [1] was “no binding (tested: 1000 nM)”; in assay [2], “no binding (tested: 1000 nM)”; in assay [4] it was “binds”. This molecule also showed a Kd in assay [3] of 0.147 nM.

B3: DL3B570 (Fc fusion)
scFv: EIVLTQSPGTLSLSPGERATLSCRASQSVSRSYLAWYQQKPGQAPRFLIYGASSRATGIPDRFSGSGSGTDFTLTISRLEPEDFAVYYCQQYGTSPITFGQGTRLEIKGGSEGKSSGSGSESKSTGGSQVQLQESGPGLVKPSETLSLSCTVSGDSIRSYYWSWIRQPPGKGLEWIGYIYYSGTTNYKSSLKSRVTISLDTSKKQFSLNLDSVTAADTAVYYCARIGPAGFYFDYWGQGTLVTVSS
notes: also called DL3B332 scFv-Fc; not shown: wild-type IgG1 Fc domain
Consider B3, for which the results for the binding result in assay [1], in assay [2] and in assay [4] were “no binding (tested: 1000 nM)”, “no binding (tested: 1000 nM)” and “binds”, respectively. The equilibrium dissociation constant (Kd) in assay [3] was 0.0668 nM.

B4: DL3B582 (bispecific antibody)
heavy: QVQLVQSGAEVKKPGASVKVSCKASGNTFTNYYIHWVRQAPGQGLEWMGIINPSGGSTSYAQKLQGRMTMTRDTSTSTVYMELSSLRSEDTAVYFCARQGPFIGDAFDIWGQGTMVTVSSASTKGPSVFPLAPSSKSTSGGTAALGCLVKDYFPEPVTVSWNSGALTSGVHTFPAVLQSSGLYSLSSVVTVPSSSLGTQTYICNVNHKPSNTKVDKKVEPKSCDKTHTCPPCPAPEAAGGPSVFLFPPKPKDTLMISRTPEVTCVVVSVSHEDPEVKFNWYVDGVEVHNAKTKPREEQYNSTYRVVSVLTVLHQDWLNGKEYKCKVSNKALPAPIEKTISKAKGQPREPQVYVLPPSREEMTKNQVSLLCLVKGFYPSDIAVEWESNGQPENNYLTWPPVLDSDGSFFLYSKLTVDKSRWQQGNVFSCSVMHEALHNHYTQKSLSLSPG
light: DIQMTQSPSSLSASVGDRVTITCRASQGISNYLAWFQQKPGKAPKSLIYAASSLQSGVPSKFSGSGSGTDFTLTISSLQPEDFATYYCQQYNSYPYTFAQGTKLEIKRTVAAPSVFIFPPSDEQLKSGTASVVCLLNNFYPREAKVQWKVDNALQSGNSQESVTEQDSKDSTYSLSSTLTLSKADYEKHKVYACEVTHQGLSSPVTKSFNRGEC
scFv: DIQMTQSPSSLSASVGDRVTITCRARQSIGTAIHWYQQKPGKAPKLLIKYASESISGVPSRFSGSGSGTDFTLTISSLQPEDFATYYCQQSGSWPYTFGQGTKLEIKGGSEGKSSGSGSESKSTGGSEVQLVESGGGLVKPGGSLRLSCAASGFTFSRYNMNWVRQAPGKGLEWVSSISTSSNYIYYADSVKGRFTFSRDNAKNSLDLQMSGLRAEDTAIYYCTRGWGPFDYWGQGTLVTVSSEPKSSDKTHTCPPCPAPEAAGGPSVFLFPPKPKDTLMISRTPEVTCVVVSVSHEDPEVKFNWYVDGVEVHNAKTKPREEQYNSTYRVVSVLTVLHQDWLNGKEYKCKVSNKALPAPIEKTISKAKGQPREPQVYVYPPSREEMTKNQVSLTCLVKGFYPSDIAVEWESNGQPENNYKTTPPVLDSDGSFALVSKLTVDKSRWQQGNVFSCSVMHEALHNHYTQKSLSLSPG
notes: DLL3 arm: DL3B279-Fab-Fc; CD3 arm: CD3W245-LH-scFv-Fc; IgG1 with L234A/L235A/D265S and heterodimerization mutations; also called CD3W245-LH-scFv; DL3B279-Fab
Take B4: in assay [5], the “Cytotoxicity (% Lysis), G361, whole PBMCs, 1:1 ET ratio, 30 nM” value came out at 98.9%; the “Cytotoxicity (% Lysis), HCC1833, whole PBMCs, 1:1 ET ratio, 30 nM” value turned out to be 93.7%; the “Cytotoxicity (% Lysis), SHP-77, whole PBMCs, 1:1 ET ratio, 30 nM” value was 87.3%. The Kd in assay [6] is 0.016 nM.

B5: DL3B583 (bispecific antibody)
heavy: B4 heavy
light: B4 light
scFv: EVQLVESGGGLVKPGGSLRLSCAASGFTFSRYNMNWVRQAPGKGLEWVSSISTSSNYIYYADSVKGRFTFSRDNAKNSLDLQMSGLRAEDTAIYYCTRGWGPFDYWGQGTLVTVSSGGSEGKSSGSGSESKSTGGSDIQMTQSPSSLSASVGDRVTITCRARQSIGTAIHWYQQKPGKAPKLLIKYASESISGVPSRFSGSGSGTDFTLTISSLQPEDFATYYCQQSGSWPYTFGQGTKLEIKEPKSSDKTHTCPPCPAPEAAGGPSVFLFPPKPKDTLMISRTPEVTCVVVSVSHEDPEVKFNWYVDGVEVHNAKTKPREEQYNSTYRVVSVLTVLHQDWLNGKEYKCKVSNKALPAPIEKTISKAKGQPREPQVYVYPPSREEMTKNQVSLTCLVKGFYPSDIAVEWESNGQPENNYKTTPPVLDSDGSFALVSKLTVDKSRWQQGNVFSCSVMHEALHNHYTQKSLSLSPG
notes: DLL3 arm: DL3B279-Fab-Fc; CD3 arm: CD3W245-HL-scFv-Fc; IgG1 with L234A/L235A/D265S and heterodimerization mutations; also called CD3W245-HL-scFv; DL3B279-Fab
As for B5, in assay [5], the “Cytotoxicity (% Lysis), G361, whole PBMCs, 1:1 ET ratio, 30 nM” value was 98.9%; the “Cytotoxicity (% Lysis), HCC1833, whole PBMCs, 1:1 ET ratio, 30 nM” value worked out at 88.4%; the “Cytotoxicity (% Lysis), SHP-77, whole PBMCs, 1:1 ET ratio, 30 nM” value came out at 99.8%. For the same molecule, in assay [6], the dissociation constant Kd turned out to be 0.016 nM.

B6: DL3B571 (Fc fusion)
scFv: EIVLTQSPGTLSLSPGERATLSCRASQSASSYLAWYQQKPGQAPRLLIYGASSRATGIPDRFSGSGSGTDFTLTISRLEPEDFAVYYCQQYNSSPYTFGQGTKLEIKGGSEGKSSGSGSESKSTGGSQVQLVQSGAEVKKPGASVKVSCKASGHIFISYYIHWVRQAPGQGLEWMGIIDPSGGSKSYAQKFQGRVTMTRDTSTSTVYMELSSLRSEDTAVYYCARQGMIVGTTGDAFDIWGQGTMVTVSS
notes: also called DL3B358 scFv-Fc; not shown: wild-type IgG1 Fc domain
For B6, the binding result was “no binding (tested: 1000 nM)” in assay [1], “no binding (tested: 1000 nM)” in assay [2] and “binds” in assay [4]. This molecule yielded a Kd in assay [3] of 0.0734 nM.
